Experimental findings from patent publication US20240076406A1 (NATIONAL RESEARCH COUNCIL OF CANADA, published 2024) are described below.

In assay [1] the target is T1, hCA-IX ECD dimer (dimeric extracellular domain of hCA-IX) (human, UniProt Q16790 38-414). Kind of assay: cell-based or functional assay.
The target in assay [2] is hCA-IX-ECD monomeric (monomeric parental CA-IX extracellular domain) (human, UniProt Q16790 38-414). Kind of assay: SPR; CA-IX immobilized on SA sensor chip, VHH injected. Here is the method:
(§1) In vitro binding affinity/SPR. To evaluate the binding affinity (KD) of the VHH only format of the 4 single domain antibodies, CA-IX monomer and dimer were immobilized on SA sensor chip (GE Healthcare) and serial dilutions of the sdAbs were injected over the surface (FIG. 3A).
Background: In SPR one partner is held on a chip, and binding of the other changes the refractive index at the surface.

Assay [3] addresses T1, hCA-IX ECD dimer (dimeric extracellular …). Described as above. Here is the method: as §1
Assay [4] has as its target human CA-II (human, UniProt P00918 1-260). Kind of assay: ELISA on purified protein, binding above background. In general terms: An ELISA detects its analyte on a solid surface through an enzyme-linked reagent.
For assay [5], the target named is T2, human CA-IV (human, UniProt P22748 19-283, limits assumed).
T2 construct: also called carbonic anhydrase IV
Described as above.

The target of assay [6] is T3, human CA-XII (human, UniProt O43570 25-291, limits assumed).
T3 construct: also called carbonic anhydrase XII
The description is as above.

Assay [7] has as its target T4, human CA-XIV (human, UniProt Q9ULX7 16-290, limits assumed).
T4 construct: also called carbonic anhydrase XIV
The description is as above.

The target of assay [8] is T5, mouse CA-IX (mouse, UniProt Q8VHB5 32-390, limits assumed). Kind of assay: ELISA on purified protein, 500 nM VHH, binding above background. The protocol: Cross reactivity and CA-IX specificity. Binding specificity and species cross reactivity of two sdAb were tested in an ELISA assay using purified proteins for human, mouse, cynomolgus monkey and dog CA-IX.
The target in assay [9] is T5, mouse CA-IX. Kind of assay: ELISA on purified protein, binding above background.

T5 sequence (Q8VHB5 32-390 limits assumed): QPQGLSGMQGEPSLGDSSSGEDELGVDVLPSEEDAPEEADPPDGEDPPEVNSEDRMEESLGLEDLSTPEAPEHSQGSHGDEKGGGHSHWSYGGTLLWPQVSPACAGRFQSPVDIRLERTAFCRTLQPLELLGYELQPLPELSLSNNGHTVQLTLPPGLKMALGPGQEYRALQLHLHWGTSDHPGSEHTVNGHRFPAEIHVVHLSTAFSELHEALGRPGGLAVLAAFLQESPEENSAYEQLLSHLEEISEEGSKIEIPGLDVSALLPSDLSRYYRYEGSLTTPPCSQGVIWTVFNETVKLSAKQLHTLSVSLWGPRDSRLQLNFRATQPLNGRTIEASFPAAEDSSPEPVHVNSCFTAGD
T3 sequence (O43570 25-291 limits assumed): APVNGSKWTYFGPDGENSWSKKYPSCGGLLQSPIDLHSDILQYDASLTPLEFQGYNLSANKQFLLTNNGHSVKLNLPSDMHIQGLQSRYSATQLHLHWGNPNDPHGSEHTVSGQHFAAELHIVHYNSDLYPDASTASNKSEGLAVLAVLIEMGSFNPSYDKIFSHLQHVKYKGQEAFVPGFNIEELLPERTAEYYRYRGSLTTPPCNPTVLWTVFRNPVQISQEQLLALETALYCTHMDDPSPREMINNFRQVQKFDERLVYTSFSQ
T2 sequence (P22748 19-283 limits assumed): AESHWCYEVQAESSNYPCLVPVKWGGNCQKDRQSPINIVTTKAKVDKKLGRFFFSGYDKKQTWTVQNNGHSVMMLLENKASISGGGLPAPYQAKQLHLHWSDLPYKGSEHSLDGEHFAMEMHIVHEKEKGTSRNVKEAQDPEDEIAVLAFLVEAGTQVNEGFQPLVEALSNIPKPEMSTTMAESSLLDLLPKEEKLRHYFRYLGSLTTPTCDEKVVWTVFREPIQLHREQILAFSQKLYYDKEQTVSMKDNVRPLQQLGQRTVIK
T4 sequence (Q9ULX7 16-290 limits assumed): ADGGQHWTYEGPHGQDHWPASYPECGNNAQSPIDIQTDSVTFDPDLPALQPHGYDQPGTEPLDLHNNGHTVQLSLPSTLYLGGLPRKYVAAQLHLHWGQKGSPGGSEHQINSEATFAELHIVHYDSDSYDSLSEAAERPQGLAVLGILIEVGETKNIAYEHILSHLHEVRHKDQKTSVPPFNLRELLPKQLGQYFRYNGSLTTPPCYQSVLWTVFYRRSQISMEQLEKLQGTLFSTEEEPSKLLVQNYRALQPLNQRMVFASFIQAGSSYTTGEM

B1: sdCA9-1-VHH (VHH)
VHH: QVQLVESGGGLVQAGGSLRLSCAASGFTFDDWAIGWFRQAPGKEREGVSCISKRHGTTHYADSVKGRFTISSDNAKNTVYLRMNGLKPEDTAVYYCAASSWGSCTVATMRDVDRYDYDYWGQGTQVTVSS
notes: Llama VHH expressed in E. coli from the pSJF2 vector and purified by IMAC
With B1, the “IC50 (hCA-IX in vitro enzyme activity, 4Mu-Ac hydrolysis)” value in [1] is 0.111 µM (unit not printed; the text gives the values in nM). In assay [1], the “logIC50 (hCA-IX in vitro enzyme activity, 4Mu-Ac hydrolysis)” value is -0.954 log10 of IC50 (IC50 in µM; unit not printed). The Kd in assay [2] is 28.9 nM; in assay [3], 37 nM. Further, the binding result in [4] is reported as “no binding (tested: 500 nM)”; in assay [5], “no binding (tested: 500 nM)”; in assay [6], “no binding (tested: 500 nM)”; in [7], “no binding (tested: 500 nM)”; in assay [8], “binds”.

B2: sdCA9-2-VHH (VHH)
VHH: QVKLEESGGDLVQPGGSLRLSCAASGFTLDYYAIGWFRQAPGKEREGVSCFSSVDGSTYYADSVKGRFTISRDNAKNMVYLQMNSLKPEDTAIYYCAAELYGELGVATVQAMCRLTTPGGDYWGQGTQVTVSS
notes: as for B1
With B2, the “IC50 (hCA-IX in vitro enzyme activity, 4Mu-Ac hydrolysis)” value in assay [1] was 0.0484 µM (unit not printed; the text gives the values in nM). Besides, in assay [1], the “logIC50 (hCA-IX in vitro enzyme activity, 4Mu-Ac hydrolysis)” value was -1.13 log10 of IC50 (IC50 in µM; unit not printed). The Kd in assay [2] is 234 nM; in assay [3], 176 nM. Besides, the binding result in assay [9], in [4], in assay [5], in [6] and in [7] was “no binding (tested: 500 nM)” throughout.

B3: sdCA9-3-VHH (VHH)
VHH: QVQLVESGGGLVQAGDSLRLSCAASGGTFSRYGMGWFRQAPGKEREFVAAISGTGLNTYYMDSVKGRFTISRDNAENTVYLQMNSLKPEDTAVYYCARDRGGVEYDYWGQGTQVTVSS
notes: Llama VHH expressed in E. coli from the pSJF2 vector and purified by IMAC; also called sdCA9-3-VHH-VHH
As for B3, the Kd is 314 nM in assay [2] and 341 nM in assay [3].

Usually Kd stands for the concentration at which binding is half-saturated.
